Measured values from patent US20200131524.

Target: T1, 3XHA-LEC2 (Arabidopsis LEAFY COTYLEDON 2, CDS in PB7HA 35S vector), Q1PFR7
T1 chain: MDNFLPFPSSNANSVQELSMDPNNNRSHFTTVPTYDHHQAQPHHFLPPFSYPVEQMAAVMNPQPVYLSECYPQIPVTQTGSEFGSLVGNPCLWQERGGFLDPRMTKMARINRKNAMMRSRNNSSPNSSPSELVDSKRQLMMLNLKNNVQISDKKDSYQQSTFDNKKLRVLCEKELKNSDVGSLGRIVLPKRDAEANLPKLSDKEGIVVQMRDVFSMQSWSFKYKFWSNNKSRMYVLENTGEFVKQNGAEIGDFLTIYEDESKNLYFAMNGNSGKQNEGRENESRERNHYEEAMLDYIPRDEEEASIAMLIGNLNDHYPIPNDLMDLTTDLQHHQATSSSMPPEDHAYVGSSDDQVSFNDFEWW

B1: 3xFLAG-UPL3 (Arabidopsis UBIQUITIN PROTEIN LIGASE 3, CDS in PW1266 35S vector) (protein)
chain: METRSRKRAEATSAAPSSSSSSPPPPPSASGPTTRSKRARLSSSSSSSLAPTPPSSSTTTRSRSSRSAAAAAPMDTSTDSSGFRRGGRGNRGNNNDNSDKGKEKEHDVRIRERERERDRAREQLNMDAAAAAARSADEDDDNDSEDGNGGFMHPNMSSASSALQGLLRKLGAGLDDLLPSSGIGSASSSHLNGRMKKILSGLRAEGEEGKQVEALTQLCEMLSIGTEDSLSTFSVDSFVPVLVGLLNHESNPDIMLLAARALTHLCDVLPSSCAAVVHYGAVSCLVARLLTIEYMDLAEQSLQALKKISQEHPTACLRAGALMAVLSYLDFFSTGVQRVALSTAANMCKKLPSDASDYVMEAVPLLTNLLQYHDSKVLEYASICLTRIAEAFAPYPEKLDELCNHGLVTQAASLISTSNSGGGQASLSVSTYTGLIRLLSTCASGSPLGFRTLLLLGISSILKDILLGSGVSANASVSPALSRPADQIYEIVNLANELLPPLPEGVISLPTSTNALVKGSCQKKSSPSTSGKQEDILKISPREKLLGDQPELLQQFGLDLLPVLVQIYGSSVNGTIRHKCLSVIGKLMYFSSSEMIQSLIGDTNISSFLAGVLAWKDPQVLVPALQVAEILMEKLPETFSKVFVREGVVHAVDQLVLVGKPSHASPTDKDNDCVPGSARSRRYRRRSSNANSDGNQSEEPKNPASLTIGANHNSLDTPTASFMLRETVSSCAKAFKDKYFPSDGGDVDVGVTDDLLHLKNLCTKLTAGIDDHKVKGKGKSKASGPFLGDFSASKEEYLIGVISEILGEISKGDGVSTFEFIGSGVVAALLNYFSCGYFSKEKISELNLPKLRQEGLRRFKAFLEVALPFDGNEGKVPPMTVLIQKLQNALSSLERFPVVLSHPSRSLSGSARLSSGLSALAHPLKLRLCRASGEKTLRDYSSNIVLIDPLASLAAVEEFLWPRVQRSESALKPAAPIGNTEPGTLPSGAGVSSPSSSTPASTTRRHSSRSRSAINIGDTSKKDPVHEKGTSSSKGKGKGVMKPAQADKGPQTRSNAQKRAVLDKDTQMKPASGDSSSEDEELEISPVDIDDALVIEEDDISDDEDDDNEDVLDDSLPMCTPDKVHDVKLADSVDDDGLATSGRQMNPASGGTSGAAAARASDSIDTGIGNSYGSRGALSFAAAAMAGLGAASGRGIRGSRDLHGRTLNRSSDEPSKLIFTAAGKQLSRHLTIYQAVQRQLMLDEDDDDRFGGSDLVSSDGSRFNDIYTIMYQRPDSQVNRLSVGGASSTTPSKSTKSATTNSSVESQSHRASLLDSILQGELPCDLEKSNSTYNVLALLRVLEGLNQLCPRLRAQTLSDRFAEGKITSLDDLSTTAAKVPLDEFVNSKLTPKLARQIQDALALCSGSLPSWCYQLTRACPFLFPFQTRRQYFYSTAFGLSRALNRLQQQQGADGSGSTNEREMRIGRLQRQKVRVSRNRILDSAAKVMEMYSSQKAVLEVEYFGEVGTGLGPTLEFYTLLSHDLQKASLGMWRSSSGDKVSMQIGRDEIEDGKPSAANRDIVLAPLGLFPRPWPSTADISEGGQFHKVIEYFRLLGRVMAKALQDGRLLDVPLSTAFYKLILGQELDLHDIVLFDAELGKTLQELRVVVARKHYLEGVGGDNSSTISDLCLRGCRIEDLSLEFTLPGYPEYILRSGDEIVDITNLEEYISLVVDATVKRGVTRQIEAFRSGFNQVFDITSLQIFTPSELDYLLCGRRELWEVETLAEHIKFDHGYNAKSPAIINLLEIMGELTADQQRAFCQFVTGAPRLPPGGLAVLNPKLTIVRKHSSTSSAAANGAGASETADDDLPSVMTCANYLKLPPYSTKEIMYKKLLYAINEGQGSFDLS
ubiquitylation of LEC2 (HA immunoprecipitation and immunoblot after co-expression in Nicotiana benthamiana): when co-expressed with 3xFLAG-UPL3, 3XHA-LEC2 ubiquitylation appears enhanced
